Patent US20250215072A1 (published 2025)

Assays:
[1] = target: hGARP-proTGFβ1 presented on cells (human, UniProt P01137 30-390; Q14392 20-662); test: cell-based or functional assay
[2] = target: hLTBP1-proTGFβ1 as produced in the cell-based activation assay (human, UniProt P01137 30-390; Q14766 347-1721); test: cell-based or functional assay
[3] = target: hLRRC33-proTGFβ1 presented on cells (human, UniProt P01137 30-390; Q86YC3 19-692); test: cell-based or functional assay
[4] = target: hLTBP3-proTGFβ1 as produced in the cell-based activation assay (human, UniProt P01137 30-390; Q9NS15 44-1303); test: cell-based or functional assay
hLTBP3-proTGFβ1 as produced in the cell-based activation assay, sequence (P01137 30-390 limits assumed, chain 1 of 2): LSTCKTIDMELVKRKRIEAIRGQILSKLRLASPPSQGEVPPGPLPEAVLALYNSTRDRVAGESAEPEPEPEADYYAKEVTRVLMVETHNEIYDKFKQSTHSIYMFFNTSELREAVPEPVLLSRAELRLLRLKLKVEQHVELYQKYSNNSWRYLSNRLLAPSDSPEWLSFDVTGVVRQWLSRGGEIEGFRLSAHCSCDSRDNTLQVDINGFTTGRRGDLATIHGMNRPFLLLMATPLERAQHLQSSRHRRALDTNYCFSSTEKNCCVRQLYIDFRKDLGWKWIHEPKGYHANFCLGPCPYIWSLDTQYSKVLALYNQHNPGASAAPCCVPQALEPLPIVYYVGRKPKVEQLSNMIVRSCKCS
hLTBP3-proTGFβ1 as produced in the cell-based activation assay, sequence (Q9NS15 44-1303 limits assumed, chain 2 of 2): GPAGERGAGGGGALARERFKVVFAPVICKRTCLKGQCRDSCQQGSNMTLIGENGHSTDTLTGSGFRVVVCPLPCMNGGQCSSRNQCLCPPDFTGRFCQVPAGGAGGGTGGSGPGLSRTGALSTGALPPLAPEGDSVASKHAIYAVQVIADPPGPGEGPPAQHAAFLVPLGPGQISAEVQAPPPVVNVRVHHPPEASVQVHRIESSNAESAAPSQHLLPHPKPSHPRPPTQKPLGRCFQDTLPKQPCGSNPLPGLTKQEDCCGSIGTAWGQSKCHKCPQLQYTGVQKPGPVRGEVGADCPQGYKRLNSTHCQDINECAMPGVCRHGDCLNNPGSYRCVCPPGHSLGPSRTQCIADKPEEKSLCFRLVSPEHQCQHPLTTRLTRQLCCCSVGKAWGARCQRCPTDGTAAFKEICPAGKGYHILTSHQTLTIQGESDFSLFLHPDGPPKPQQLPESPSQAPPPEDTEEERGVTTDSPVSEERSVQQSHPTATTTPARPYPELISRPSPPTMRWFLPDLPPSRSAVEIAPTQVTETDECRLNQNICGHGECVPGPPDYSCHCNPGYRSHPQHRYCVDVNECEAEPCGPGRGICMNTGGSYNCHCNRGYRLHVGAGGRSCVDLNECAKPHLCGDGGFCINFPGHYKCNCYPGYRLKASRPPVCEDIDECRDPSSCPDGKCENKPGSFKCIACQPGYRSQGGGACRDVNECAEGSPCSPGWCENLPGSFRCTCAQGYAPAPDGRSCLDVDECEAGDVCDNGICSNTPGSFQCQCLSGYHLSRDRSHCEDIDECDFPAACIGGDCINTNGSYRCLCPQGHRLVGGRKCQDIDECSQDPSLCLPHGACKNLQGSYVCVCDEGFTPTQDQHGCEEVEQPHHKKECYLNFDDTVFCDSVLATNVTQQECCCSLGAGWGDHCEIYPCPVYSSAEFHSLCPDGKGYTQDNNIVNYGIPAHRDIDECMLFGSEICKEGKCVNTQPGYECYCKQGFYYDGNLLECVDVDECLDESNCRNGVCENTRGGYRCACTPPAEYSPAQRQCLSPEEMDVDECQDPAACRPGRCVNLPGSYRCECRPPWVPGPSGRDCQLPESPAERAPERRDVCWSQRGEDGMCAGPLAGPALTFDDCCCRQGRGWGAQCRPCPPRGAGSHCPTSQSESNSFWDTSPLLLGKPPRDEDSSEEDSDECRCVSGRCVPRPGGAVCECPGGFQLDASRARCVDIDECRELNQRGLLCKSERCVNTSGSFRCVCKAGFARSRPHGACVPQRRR

[5] = target: T1, human GARP-proTGFβ1 complex (human, UniProt P01137 30-390; Q14392 20-627); test: BLI (Octet)
T1 construct: also called hGARP-proTGFβ1; hGARP
T1 sequence (P01137 30-390, chain 1 of 2): as the sequence (P01137 30-390 limits assumed, chain 1 of 2) above
T1 sequence (Q14392 20-627, chain 2 of 2): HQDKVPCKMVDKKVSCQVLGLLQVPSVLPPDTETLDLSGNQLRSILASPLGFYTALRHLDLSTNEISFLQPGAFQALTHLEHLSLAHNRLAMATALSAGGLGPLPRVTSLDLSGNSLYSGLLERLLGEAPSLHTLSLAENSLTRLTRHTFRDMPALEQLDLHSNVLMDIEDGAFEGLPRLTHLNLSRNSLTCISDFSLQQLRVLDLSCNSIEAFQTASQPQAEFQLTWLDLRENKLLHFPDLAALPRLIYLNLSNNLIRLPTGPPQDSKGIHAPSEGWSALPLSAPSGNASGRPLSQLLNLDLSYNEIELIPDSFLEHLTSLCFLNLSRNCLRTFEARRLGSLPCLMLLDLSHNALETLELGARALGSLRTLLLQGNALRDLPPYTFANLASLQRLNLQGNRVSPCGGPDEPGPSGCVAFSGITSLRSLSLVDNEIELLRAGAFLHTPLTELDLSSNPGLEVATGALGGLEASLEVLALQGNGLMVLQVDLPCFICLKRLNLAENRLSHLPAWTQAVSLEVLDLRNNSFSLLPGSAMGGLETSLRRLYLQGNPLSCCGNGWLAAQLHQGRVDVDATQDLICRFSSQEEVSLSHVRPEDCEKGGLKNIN
Procedure: (§1) The affinity of anti-TGFβ1 antibodies was measured by Octet@ assay on human proTGFβ1 cells, while activity was measured by CAGA12 reporter cells testing human proTGFβ1 inhibition.

[6] = target: T2, human LRRC33-proTGFβ1 complex (human, UniProt P01137 30-390; Q86YC3 19-650); test: BLI (Octet)
T2 construct: also called hLRRC33-proTGFβ1; hLRRC33
Procedure: as §1

[7] = target: T1, human GARP-proTGFβ1 complex; test: MSD-SET, hIgG4
Procedure: (§2) MSD-SET assays were performed to measure affinities of the antibodies at equilibrium. Briefly, each test antibody was diluted 3-5 fold and samples were mixed with biotinylated antigen in a 48-well dish. The SET samples were equilibrated for 20-24 hours at room temperature. Meanwhile, a capture plate was coated with IgG (20 nM) and incubated overnight at 4° C. or 30 minutes at room temperature, followed by a blocking step with 5% BSA. After the capture plate was washed three times, SET samples were added and incubated for 150 seconds. The plate was washed once to remove unbound complexes. 250 ng/ml SA-Sulfotag was added then washed 3 times. 2× Read Buffer was added, and signals from the labeled bound complexes were read with the use of QuickPlex™ SQ 120 instrument.

[8] = target: T2, human LRRC33-proTGFβ1 complex; test: MSD-SET, hIgG4
Procedure: as §2

hLTBP1-proTGFβ1 as produced in the cell-based activation assay, sequence (P01137 30-390 limits assumed, chain 1 of 2): as the sequence (P01137 30-390 limits assumed, chain 1 of 2) above
hLTBP1-proTGFβ1 as produced in the cell-based activation assay, sequence (Q14766 347-1721 limits assumed, chain 2 of 2): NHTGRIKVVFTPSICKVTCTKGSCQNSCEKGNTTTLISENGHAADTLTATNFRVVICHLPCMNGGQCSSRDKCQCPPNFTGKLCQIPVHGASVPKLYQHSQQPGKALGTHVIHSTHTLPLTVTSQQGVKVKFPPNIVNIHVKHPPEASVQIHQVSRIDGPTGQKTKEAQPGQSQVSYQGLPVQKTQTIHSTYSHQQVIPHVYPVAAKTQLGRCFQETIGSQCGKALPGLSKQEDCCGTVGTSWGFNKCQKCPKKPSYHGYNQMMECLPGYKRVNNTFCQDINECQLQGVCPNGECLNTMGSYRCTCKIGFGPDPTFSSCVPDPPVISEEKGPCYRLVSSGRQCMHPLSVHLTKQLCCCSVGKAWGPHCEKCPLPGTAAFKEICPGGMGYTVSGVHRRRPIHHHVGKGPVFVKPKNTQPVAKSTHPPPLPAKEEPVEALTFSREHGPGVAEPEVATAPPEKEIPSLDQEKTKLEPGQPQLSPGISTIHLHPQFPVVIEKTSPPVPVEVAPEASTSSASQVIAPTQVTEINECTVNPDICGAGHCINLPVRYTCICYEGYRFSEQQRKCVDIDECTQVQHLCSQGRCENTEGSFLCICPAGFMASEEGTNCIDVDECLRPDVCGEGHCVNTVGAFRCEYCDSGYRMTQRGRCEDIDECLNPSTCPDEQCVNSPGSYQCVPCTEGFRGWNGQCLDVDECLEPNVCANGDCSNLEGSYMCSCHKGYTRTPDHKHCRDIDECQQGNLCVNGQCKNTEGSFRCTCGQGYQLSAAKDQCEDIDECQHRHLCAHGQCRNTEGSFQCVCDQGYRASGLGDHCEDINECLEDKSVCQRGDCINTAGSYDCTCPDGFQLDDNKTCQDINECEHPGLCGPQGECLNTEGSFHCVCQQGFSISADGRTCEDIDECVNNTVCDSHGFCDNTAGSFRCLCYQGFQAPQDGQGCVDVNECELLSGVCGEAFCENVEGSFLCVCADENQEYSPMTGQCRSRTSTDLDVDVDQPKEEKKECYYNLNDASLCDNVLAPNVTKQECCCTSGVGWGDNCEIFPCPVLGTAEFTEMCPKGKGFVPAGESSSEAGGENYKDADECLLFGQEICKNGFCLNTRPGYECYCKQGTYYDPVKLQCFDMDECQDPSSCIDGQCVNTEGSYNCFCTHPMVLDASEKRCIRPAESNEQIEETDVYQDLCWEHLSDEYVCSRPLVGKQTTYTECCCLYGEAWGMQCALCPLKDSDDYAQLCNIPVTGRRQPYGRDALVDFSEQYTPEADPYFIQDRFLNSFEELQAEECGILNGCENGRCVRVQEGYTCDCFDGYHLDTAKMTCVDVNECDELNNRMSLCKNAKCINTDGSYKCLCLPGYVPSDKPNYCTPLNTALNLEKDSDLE

Row | Binder | IC50, reporter cell assay [1] | IC50, reporter cell assay [2] | IC50, reporter cell assay [3] | IC50, reporter cell assay [4] | Kd [5] | Kd [6] | Kd [7] | Kd [8]
1 | Ab1 (antibody, V domains shown) VH: EVQLLESGGGLVQPGGSLRLSCAASGFTFRNYAMSWVRQAPGKGLEWVSSISGSGGATYYADSVKGRFTISRDNSKNTLYLQMNSLRAEDTAVYYCARVSSGHWDFDYWGQGTLVTVSS VL: DIQLTQSPSSLSASVGDRVTITCQASQDISNFLNWYQQKPGKAPKLLIYDASNLETGVPSRFSGSGSGTDFTFTISSLQPEDIATYYCQQVFNPPLTFGGGTKVEIK | 3720 pM | 14500 pM | 5370 pM | 2710 pM | – | – | – | –
2 | Ab10 (antibody, V domains shown) VH: EVQLLESGGGLVQPGGSLRLSCAASGFTFRNYAMSWVRQAPGKGLEWVSSISGSGGATYYADSVKGRFTISRDNSKNTLYLQMNSLRAEDTAVYYCARVSSGHWDFDYWGQGTLVTVSS VL: not shown | – | – | – | – | 10200 pM | 1060 pM | – | –
3 | Ab9 (antibody, V domains shown) VH: QVQLVESGGGVVQPGGSLRLSCAASGFTFSSFAMTWVRQAPGKGLEWVSAISGSGAATYFADSVKGRFTISRDNSKNTLYLQMNSLRAEDTAVYYCARVSSGHWDFDYWGQGTLVTVSS VL: not shown | – | – | – | – | 15500 pM | 1300 pM | – | –
4 | Ab8 (antibody, V domains shown) VH: QVQLVESGGGVVQPGRSLRLSCAASGFTFSDYAMVWVRQAPGKGLEWVSAISGSGFTTYYADSVKGRFTISRDNSKNTLYLQMNSLRAEDTAVYYCARVSSGHWDFDYWGQGTLVTVSS VL: not shown | – | – | – | – | 15400 pM | 10000 pM | – | –
5 | Ab13 (antibody, V domains shown) VH: EVQLLESGGGLVQPGGSLRLSCAASGFTFADYAMTWVRQAPGKGLEWVSAISSFASAIYYADSVKGRFTISRDNSKNTLYLQMNSLRAEDTAVYYCARVSSGHWDFDYWGQGTLVTVSS VL: DIQMTQSPSSLSASVGDRVTITCRASQSISSYLNWYQQKPGKAPKLLIYAASSLQSGVPSRFSGSGSGTDFTLTISSLQPEDFATYYCQQVYDPPLTFGGGTKVEIK | – | – | – | – | 10000 pM | 1400 pM | – | –
6 | Ab5 (antibody, V domains shown) VH: EVQLVESGGGLVQPGGSLRLSCAASGFTFSSFSMDWVRQAPGKGLEWVSYISPDASTIYYADSVKGRFTISRDNAKNSLYLQMNSLRAEDTAVYYCARGVLDYGDMLDPWGQGTLVTVSS VL: DIQMTQSPSSLSASVGDRVTITCQASQDITNYLNWYQQKPGKAPKLLIYDASNLETGVPSRFSGSGSGTDFTFTISSLQPEDIATYYCQQADNHPPWTFGGGTKVEIK | 140 pM | 1290 pM | 616 pM | 1000 pM | – | – | – | –
7 | Ab30 (antibody, IgG4, V domains shown) VH: EVQLVESGGGLVQPGGSLRLSCAASGFTFSSFSMDWVRQAPGKGLEWVSYISPDASTIYYADSVKGRFTISRDNAKNSLYLQMNSLRAEDTAVYYCARGTLDYGDMLDPWGQGTLVTVSS VL: DIQMTQSPSSLSASVGDRVTITCQASQDITNYLNWYQQKPGKAPKLLIYDASNLETGVPSRFSGSGSGTDFTFTISSLQPEDIATYYCQQADNHPPWTFGGGTKVEIK | – | – | – | – | 833 pM | 535 pM | 22 pM | 140 pM
8 | Ab26 (antibody, IgG4, V domains shown) VH: EVQLVESGGGLVQPGGSLRLSCAASGFTFSSFSMDWVRQAPGKGLEWVSYISPDASTIYYADSVKGRFTISRDNAKNTLYLQMNSLRAEDTAVYYCARGVLDYGDMLDPWGQGTLVTVSS VL: DIQMTQSPSSLSASVGDRVTITCQASQDITNYLNWYQQKPGKAPKLLIYDASNLETGVPSRFSGSGSGTDFTFTISSLQPEDIATYYCQQADNHPPWTFGGGTKVEIK | 262 pM | 713 pM | 341 pM | 716 pM | 625 pM | 360 pM | 14 pM | 130 pM
9 | Ab29 (antibody, IgG4, V domains shown) VH: EVQLVESGGGLVQPGRSLRLSCAASGFTFSSFAMNWVRQAPGKGLEWVSYISPDASTIYYAGSVKGRFTISRDNAKNSLYLQMNSLRAEDTAVYYCVRAVLDYGDMLDPWGQGTLVTVSS VL: DIQMTQSPSSLSASVGDRVTITCQASQDITNYLNWYQQKPGKAPKLLIYDASNLETGVPSRFSGSGSGTDFTFTISSLQPEDIATYYCQQADNHPPWTFGGGTKVEIK | 264 pM | 471 pM | 458 pM | 803 pM | 307 pM | 302 pM | 5.5 pM | 43 pM
10 | Ab23 (antibody, V domains shown) VH: EVQLVESGGGLVQPGGSLRLSCAASGFTFSSFSMNWVRQAPGKGLEWVSYISPSADTIYYADSVKGRFTISRDNAKNTLYLQMNSLRAEDTAVYYCARGVLDYGDMLDPWGQGTLVTVSS VL: DIQMTQSPSSLSASVGDRVTITCQASQDITNYLNWYQQKPGKAPKLLIYDASNLETGVPSRFSGSGSGTDFTFTISSLQPEDIATYYCQQADNHPPWTFGGGTKVEIK | 264 pM | 835 pM | 579 pM | 879 pM | 1340 pM | 455 pM | – | –
11 | Ab22 (antibody, IgG4, V domains shown) VH: EVQLVESGGGLVQPGGSLRLSCAASGFTFGSFSMNWVRQAPGKGLEWVSYIHSDASTIYYADSVKGRFTISRDNAKNSLYLQMNSLRAEDTAVYYCARGVLDYGDMLDPWGQGTLVTVSS VL: DIQMTQSPSSLSASVGDRVTITCQASQDITNYLNWYQQKPGKAPKLLIYDASNLETGVPSRFSGSGSGTDFTFTISSLQPEDIATYYCQQADNHPPWTFGGGTKVEIK | – | – | – | – | 974 pM | 415 pM | 27 pM | 200 pM
12 | Ab21 (antibody, V domains shown) VH: EVQLVESGGGLVQPGGSLRLSCAASGFTFSSFSMDWVRQAPGKGLEWVSYISPDASTIYYADSVKGRFTISRDNAKNSLYLQMNSLRAEDTAVYYCARGVLDYGDMLDPWGQGTLVTVSS VL: DIQMTQSPSSLSASVGDRVTITCQASQDITNYLNWYQQKPGKAPKLLIYDASNLETGVPSRFSGSGSGTDFTFTISSLQPEDIATYYCQQADNHPPWTFGGGTKVEIK | 400 pM | 1610 pM | 596 pM | 765 pM | 833 pM | 455 pM | – | –
13 | Ab32 (antibody, IgG4, V domains shown) VH: EVQLVESGGGLVQPGGSLRLSCAASGFTFSSFSMNWVRQAPGKGLEWVSYISPSADTIYYADSVKGRFTISRDNAKNTLYLQMNSLRAEDTAVYYCARGVWDMGDMLDPWGQGTLVTVSS VL: DIQMTQSPSSLSASVGDRVTITCQASQDITNYLNWYQQKPGKAPKLLIYDASNLETGVPSRFSGSGSGTDFTFTISSLQPEDIATYYCQQADNHPPWTFGGGTKVEIK | – | – | – | – | 496 pM | 698 pM | 15 pM | 87 pM
14 | Ab24 (antibody, IgG4, V domains shown) VH: EVQLVESGGGLVQPGRSLRLSCAASGFTFSSFAMYWVRQAPGKGLEWVSYISPDASTIYYADSVKGRFTISRDNAKNSLYLQMNSLRAEDTAVYYCARGVLDYGDMLDPWGQGTLVTVSS VL: DIQMTQSPSSLSASVGDRVTITCQASQDITNYLNWYQQKPGKAPKLLIYDASNLETGVPSRFSGSGSGTDFTFTISSLQPEDIATYYCQQADNHPPWTFGGGTKVEIK | – | – | – | – | 665 pM | 410 pM | 19 pM | 180 pM
15 | Ab25 (antibody, V domains shown) VH: EVQLVESGGGLVQPGGSLRLSCAASGFTFGSFSMDWVRQAPGKGLEWVSYISPDASTIYYADSVKGRFTISRDNAKNSLYLQMNSLRAEDTAVYYCARGVLDYGDMLDPWGQGTLVTVSS VL: DIQMTQSPSSLSASVGDRVTITCQASQDITNYLNWYQQKPGKAPKLLIYDASNLETGVPSRFSGSGSGTDFTFTISSLQPEDIATYYCQQADNHPPWTFGGGTKVEIK | 442 pM | 6080 pM | 653 pM | 538 pM | 488 pM | 409 pM | – | –
16 | Ab31 (antibody, IgG4, V domains shown) VH: EVQLVESGGGLVQPGGSLRLSCAASGFTFSSFSMDWVRQAPGKGLEWVSYISPDASTIYYADSVKGRFTISRDNAKNTLYLQMNSLRAEDTAVYYCARAVLDYGDMLDPWGQGTLVTVSS VL: DIQMTQSPSSLSASVGDRVTITCQASQDITNYLNWYQQKPGKAPKLLIYDASNLETGVPSRFSGSGSGTDFTFTISSLQPEDIATYYCQQADNHPPWTFGGGTKVEIK | – | – | – | – | 581 pM | 410 pM | 19 pM | 96 pM
